Earlier results as cited in paper PMC10330121.

Assays:
[1] = molecular target: histone H3 N-terminal tail (Homo sapiens) (UniProt P68431)
PAF15 (Homo sapiens) = PAF15 (Homo sapiens) (UniProt Q15004)
[2] = molecular target: VRK1-K4me3 (Homo sapiens) (UniProt Q99986)
VRK1-K4me3 (Homo sapiens), sequence (Q99986 whole entry): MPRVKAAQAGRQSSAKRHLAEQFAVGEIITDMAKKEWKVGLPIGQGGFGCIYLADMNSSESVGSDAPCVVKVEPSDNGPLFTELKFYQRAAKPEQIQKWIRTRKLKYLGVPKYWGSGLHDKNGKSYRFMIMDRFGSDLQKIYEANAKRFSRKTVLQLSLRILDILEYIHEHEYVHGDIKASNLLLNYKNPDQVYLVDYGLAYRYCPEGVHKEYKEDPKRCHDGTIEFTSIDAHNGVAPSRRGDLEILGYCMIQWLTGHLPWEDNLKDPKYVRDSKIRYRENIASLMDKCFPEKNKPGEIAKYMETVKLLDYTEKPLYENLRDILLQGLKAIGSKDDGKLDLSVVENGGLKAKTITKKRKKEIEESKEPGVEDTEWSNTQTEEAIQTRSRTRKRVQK

UHRF1 PHD, sequence (Q96T88 307-369): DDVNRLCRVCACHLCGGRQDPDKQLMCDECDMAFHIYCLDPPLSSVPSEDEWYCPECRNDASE
PHF8 PHD-Jumonji, sequence (Q9UPP1 37-483): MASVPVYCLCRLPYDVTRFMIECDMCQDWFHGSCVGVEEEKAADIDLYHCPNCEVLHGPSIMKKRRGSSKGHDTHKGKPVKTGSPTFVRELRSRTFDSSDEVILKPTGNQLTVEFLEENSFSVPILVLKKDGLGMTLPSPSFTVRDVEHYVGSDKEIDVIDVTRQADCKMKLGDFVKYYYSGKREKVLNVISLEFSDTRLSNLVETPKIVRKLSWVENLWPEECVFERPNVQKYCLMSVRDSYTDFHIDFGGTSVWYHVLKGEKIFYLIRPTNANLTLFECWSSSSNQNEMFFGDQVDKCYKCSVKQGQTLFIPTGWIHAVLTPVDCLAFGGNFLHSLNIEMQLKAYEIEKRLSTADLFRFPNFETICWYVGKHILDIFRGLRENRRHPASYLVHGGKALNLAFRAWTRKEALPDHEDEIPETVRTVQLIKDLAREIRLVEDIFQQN
PAF15 (Homo sapiens), sequence (Q15004 whole entry): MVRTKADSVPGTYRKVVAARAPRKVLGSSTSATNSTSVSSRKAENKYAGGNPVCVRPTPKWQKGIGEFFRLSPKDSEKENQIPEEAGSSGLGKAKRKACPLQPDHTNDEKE

Row | Substance | Kd [1] [nM] | Kd (PAF15 (Homo sapiens)) [nM] | Kd [2] [nM]
1 | UHRF1 PHD (from UniProt Q96T88) | 2000 | 2000 | 
2 | PHF8 PHD-Jumonji (from UniProt Q9UPP1) |  |  | 42
